Results on 4 molecules are retold here after article PMC10526462.

The target in data set [1] is T1, alpha-thrombin (Homo sapiens, UniProt P00734;P00734 328-363;364-622). The data set can be described thus: ELISA-based binding with competition; 100-fold excess unlabeled competitor as control; 20 mM Tris pH 7.5, 150 mM NaCl, 0.1% BSA, 0.1% Tween 20, 100 ug/mL sheared salmon sperm DNA, 1 h, room temperature; thrombin coated at 250 nM. (In general: In an ELISA, binding on a coated surface is turned into a signal by an enzyme label.)

Data set [2] deals with T1, alpha-thrombin. The data set can be described thus: competition; 100-fold excess over biotinylated AYA1809007; 20 mM Tris pH 7.5, 150 mM NaCl, 0.1% BSA, 0.1% Tween 20, 100 ug/mL sheared salmon sperm DNA, 1 h, room temperature; thrombin coated at 250 nM.
Data set [3] has as its target T1, alpha-thrombin. The data set can be described thus: ELISA; 20 mM Tris pH 7.5, 150 mM NaCl, 0.1% BSA, 0.1% Tween 20, 100 ug/mL sheared salmon sperm DNA, 1 h, room temperature; thrombin coated at 250 nM.

B1: AYA1809002 (structured_DNA)
DNA: GCGGTGTTGCTGGGGTTGGGAGGTTGGAGGAAGCAATCGC
Regarding B1, binding with alpha-thrombin [1] was put at a Kd of 0.01 µM.

B2: AYA1809007 unlabeled (structured_DNA)
DNA: AGGGGCTCTAGGGTGGGTAGGATGGTGAGACCGCAGCGT
In the case of B2, the binding result with alpha-thrombin [2] is “binds”.

B3: AYA1809007 (structured_DNA)
DNA: B2 DNA
Consider B3, for which the binding result with alpha-thrombin [3] is “binds”.

B4: AYA1809004 (structured_DNA)
DNA: TCGTCAAGGTACGGTTGGGGGGGTGGGTGTTGACGTTGAA
Consider B4, for which binding with alpha-thrombin [1] was put at a Kd of 0.013 µM.
